US20060229272A1 (published 2006)
No end group written: not given here.

T1: HGPRBMY11 polypeptide (human G-protein coupled receptor, SEQ ID NO:2) (human, UniProt Q9NS75 17-346)
T1 construct: 330 amino acids; also called GPCR74; GPCR 81
T1 sequence: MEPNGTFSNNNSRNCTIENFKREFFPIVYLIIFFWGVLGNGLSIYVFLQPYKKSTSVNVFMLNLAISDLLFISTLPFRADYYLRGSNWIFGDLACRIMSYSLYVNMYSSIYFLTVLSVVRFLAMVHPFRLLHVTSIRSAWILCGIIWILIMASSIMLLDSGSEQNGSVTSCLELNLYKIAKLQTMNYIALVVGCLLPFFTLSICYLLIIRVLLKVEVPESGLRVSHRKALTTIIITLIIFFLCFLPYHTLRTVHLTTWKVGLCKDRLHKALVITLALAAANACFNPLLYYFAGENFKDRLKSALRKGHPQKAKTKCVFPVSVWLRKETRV


Target: T1, HGPRBMY11 polypeptide (human G-protein …)
Assay: phage display panning of M13KE peptide libraries on CHO-K1 cells transfected with HGPRBMY11, after preadsorption on integrin and parental cells; bound phage eluted and sequenced
Procedure: On the day of panning, growth medium was discarded and cells were washed with 10 ml PBS by allowing the buffer to flow over the cells. The PBS was removed and 10 ml Tris-EDTA detaching buffer (Gibco Cat. # 13150-016; no trypsin) was added for 2 min. Plates were tapped and/or pipetted up and down to detach cells. This was done quickly to minimize the exposure of the cells to this reagent. Cells were pelleted by centrifugation at 3 K, and then washed with 20 ml PBS. Cells were resuspended cells in PBS with 2% milk blocking agent plus protease inhibitor (EDTA-free; Roche Cat. # 1 873 580). For each library, cell suspensions of ˜500 ul were used. Cells were blocked for 30-60 min with gentle rocking at room temperature. The integrin-coated wells were washed 3× in PBST, then blocked with 2% BSA in PBS for 30 min or more. To preadsorb against integrin, input phage was added to the integrin-coated wells, and incubated for 30 min or more.
At this stage, the blocked parental cells were divided into the required number of aliquots (500 ul aliquot/library). The phage supernatants were added from the integrin-preadsorption step. Preadsorption against the parental cells was carried out for 30 min or more with gentle rocking. […]
Standard procedures were used. […] Colonies were grown in liquid medium and analyzed by standard sequencing procedures.

Binder	binding result
LFASSDWSSFPVLVF (also: displayed fused to phage coat protein, not free peptide, In the assay it stood fused to the phage coat protein, not as a free peptide; The synthesis of free N-acetyl peptide amides is described only as a method; also called Peptide Modulator of HGPRBMY11) [LFASSDWSSFPVLVF (SEQ ID NO:81)]	binds
THGFGHRVWSVPLRS (In the assay it stood fused to the phage coat protein; also called Peptide Modulator of HGPRBMY11) [THGFGHRVWSVPLRS (SEQ ID NO:96)]	binds
